# Reference: paper PMC12269497, “Dimerization of the BAR domain–containing protein FAM92A modulates lipid binding and interaction with CBY1” (The Journal of Biological Chemistry, 2025)
# T1: Trx-Strep-tagged mouse FAM92A BAR domain (amino acids 70-283) (mouse)
# T1 chain: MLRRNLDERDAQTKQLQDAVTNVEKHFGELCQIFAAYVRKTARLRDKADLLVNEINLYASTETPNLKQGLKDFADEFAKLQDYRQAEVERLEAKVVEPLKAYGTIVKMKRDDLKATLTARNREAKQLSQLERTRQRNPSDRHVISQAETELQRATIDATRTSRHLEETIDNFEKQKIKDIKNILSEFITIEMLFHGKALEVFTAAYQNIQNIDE
# B1: MBP-His-tagged full-length mouse Chibby1 (CBY1) (natural protein, UniProt Q9D1C2 1-127, looked up)
# chain: MPLFGSIFSPKKTPPRKSASLSNLHSLDRSTRELELGLDYGTPTMNLAGQSLKFENGQWVADSVISGGVDRRETQRLRKRNQQLEEENNLLRLKVDILLDMLSETTAESHLKDKELDELKVTNRRRK
# notes: mouse CBY1, GenBank NP_082910.1, amino acids 1-127; also called CBY1 FL; CBY1-FL; source: E. coli BL21 (DE3), purified (Ni-NTA, SEC); not shown: MBP, N-terminal, kept; His6, N-terminal, kept
# B2: Trx-His-tagged mouse CBY1 N-terminal region (amino acids 1-70) (domain or fragment)
# chain: MPLFGSIFSPKKTPPRKSASLSNLHSLDRSTRELELGLDYGTPTMNLAGQSLKFENGQWVADSVISGGVD
# B3: Trx-tagged mouse CBY1 coiled-coil domain (amino acids 61-127) (domain or fragment, UniProt Q9D1C2 61-127, looked up)
# chain: ADSVISGGVDRRETQRLRKRNQQLEEENNLLRLKVDILLDMLSETTAESHLKDKELDELKVTNRRRK
# notes: mouse CBY1, GenBank NP_082910.1, amino acids 61-127 (C-terminal coiled-coil domain); also called CBY1 CC; source: E. coli BL21 (DE3), purified; not shown: Trx, N-terminal, kept
# Assays:
# [1] = target: mouse FAM92A BAR domain (amino acids 70-283), untagged (mouse); test: SEC-MALS; typically 200 μl at 70 μM injected; Superose 12 10/300 GL; 50 mM Tris pH 7.5, 1 mM DTT, 1 mM EDTA, 100 mM NaCl
# [2] = target: Trx-Strep-tagged mouse FAM92A BAR domain (amino acids 70-283) (mouse); test: BLI; Trx-Strep-tagged FAM92A BAR (1 μM) loaded on Strep-Tactin XT probes, His-tagged CBY1 variants in solution; PBS with 0.02% Tween-20 and 0.2% BSA; 1:1 binding model
# [3] = target: mouse FAM92A BAR domain (amino acids 70-283), untagged (mouse); test: ITC; CBY1 variants (200–300 μM) in the syringe, FAM92A BAR or its dimerization mutants (100–120 μM) in the cell; 25 °C; 50 mM Tris pH 7.5, 1 mM DTT, 1 mM EDTA, 100 mM NaCl; one-site binding model
# [4] = target: mouse FAM92A BAR domain Mu1 (K176, K178, R179 to glutamic acid) (mouse); test: SEC-MALS; typically 200 μl at 70 μM injected; Superose 12 10/300 GL; 50 mM Tris pH 7.5, 1 mM DTT, 1 mM EDTA, 100 mM NaCl
# [5] = target: mouse FAM92A BAR domain Mu4 (K169, K183, K194 to glutamic acid) (mouse); test: as above
# [6] = target: mouse FAM92A BAR domain Mu5 (R72, K83, K94 to glutamic acid) (mouse); test: as above
# [7] = target: mouse FAM92A BAR domain Mu3 (R108, K109, R112, R114, K116 to glutamic acid) (mouse); test: as above
# [8] = target: Trx-tagged full-length mouse FAM92A (mouse); test: as above
# [9] = target: mouse FAM92A BAR domain Mu2 (R201, R203, R205 to glutamic acid) (mouse); test: as above
# [10] = target: the molecule itself; test: as above
# [11] = target: T1, Trx-Strep-tagged mouse FAM92A BAR …; test: BLI
molecule,measurement,setting,value
"mouse FAM92A BAR domain (amino acids 70-283), untagged (domain or fragment)",stoichiometry N,[1],2
"MBP-His-tagged mouse CBY1 4E (L77E, L84E, L91E, L98E) (from UniProt Q9D1C2 1-127) (natural protein)",Kd,[2],5.6 µM
same,Kd,[3],2.8 µM
"mouse FAM92A BAR domain Mu1 (K176, K178, R179 to glutamic acid) (domain or fragment)",stoichiometry N,[4],2
"mouse FAM92A BAR domain Mu4 (K169, K183, K194 to glutamic acid) (domain or fragment)",stoichiometry N,[5],2
"mouse FAM92A BAR domain Mu5 (R72, K83, K94 to glutamic acid) (domain or fragment)",stoichiometry N,[6],2
"mouse FAM92A BAR domain Mu3 (R108, K109, R112, R114, K116 to glutamic acid) (domain or fragment)",stoichiometry N,[7],2
Trx-tagged full-length mouse FAM92A (natural protein),stoichiometry N,[8],2
"mouse FAM92A BAR domain Mu2 (R201, R203, R205 to glutamic acid) (domain or fragment)",stoichiometry N,[9],2
B1,Kd,[2],0.25 µM
same,Kd,[3],0.15 µM
same,stoichiometry N,[10],2
B2,Kd,[2],10 µM
same,Kd,[3],3.6 µM
same,Kd,[11],10.8 µM
B3,stoichiometry N,[10],2
